Results: IntAct's records for PubMed 25710501

B1: Granule-bound starch synthase 1, chloroplastic/amyloplastic (Arabidopsis thaliana (Mouse-ear cress)), Q9MAQ0 (parent)
chain: MATVTASSNFVSRTSLFNNHGASSCSDVAQITLKGQSLTHCGLRSFNMVDNLQRRSQAKPVSAKSSKRSSKVKTAGKIVCEKGMSVIFIGAEVGPWSKTGGLGDVLGGLPPALAARGHRVMTICPRYDQYKDAWDTCVVVQIKVGDKVENVRFFHCYKRGVDRVFVDHPIFLAKVVGKTGSKIYGPITGVDYNDNQLRFSLLCQAALEAPQVLNLNSSKYFSGPYGEDVVFVANDWHTALLPCYLKSMYQSRGVYMNAKVVFCIHNIAYQGRFAFDDYSLLNLPISFKSSFDFMDGYEKPVKGRKINWMKAAILEAHRVLTVSPYYAQELISGVDRGVELHKYLRMKTVSGIINGMDVQEWNPSTDKYIDIKYDITTVTDAKPLIKEALQAAVGLPVDRDVPVIGFIGRLEEQKGSDILVEAISKFMGLNVQMVILGTGKKKMEAQILELEEKFPGKAVGVAKFNVPLAHMITAGADFIIVPSRFEPCGLIQLHAMRYGTVPIVASTGGLVDTVKDGYTGFHIGRFNVKCEVVDPDDVIATAKAVTRAVAVYGTSAMQEMVKNCMDQDFSWKGPARLWEKVLLSLNVAGSEAGTEGEEIAPLAKENVATP
partner: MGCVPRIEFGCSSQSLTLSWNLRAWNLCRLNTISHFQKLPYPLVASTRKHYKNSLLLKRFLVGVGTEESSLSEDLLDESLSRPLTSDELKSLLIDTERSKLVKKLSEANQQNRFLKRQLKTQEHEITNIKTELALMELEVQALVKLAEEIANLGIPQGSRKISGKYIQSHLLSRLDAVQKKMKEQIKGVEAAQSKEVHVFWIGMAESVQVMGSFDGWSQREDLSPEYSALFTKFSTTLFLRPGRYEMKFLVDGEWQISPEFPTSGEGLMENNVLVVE

Variants of: B1
Conditions: with ptst_arath PTST

Variant | effect of a mutation on the interaction
E449K | decreasing interaction strength
E452K | disrupting interaction strength
K441E;E452K | disrupting interaction strength
K441E | decreasing interaction strength

Variants of: B1
Conditions: with ptst_arath PTST
Remark: another data set of the same source

Variant | effect of a mutation on the interaction
E452K | decreasing interaction strength
K441E;E452K | decreasing interaction strength
